± gives the uncertainty stated by the source.
Test: self-splicing fitness, log relative to wild type (ln ratio); higher = more splicing; Tetrahymena group I intron in knt gene, E. coli kanamycin selection, DiMSum; sequences stand for … in CUCUCU…GGAGGGAAAAGUUAUCAGGCAUGCACCUGGUAGCUAGUCUUUAAACCAAUAGAUUGCAUCGGUUUAAAAGGCAAGACCGUCAAAUUGCGGGAAAGGGGUCAACAGCCGUUCAGUACCAAGUCUCAGGGGAAACUUUGAGAUGGCCUUGCAAAGGGUAUGGUAAUAAGCUGACGGACAUGGUCCUAACCACGCAGCCAAGUCCUAAGUCAACAGAUCUUCUGUUGAUAUGGAUGCAGUUCACAGACUAAAUGUCGGUCGGGGAAGAUGUAUUCUUCUCAUAAGAUAUAGUCGGACCUCUCCUUAAUGGGAGCUAGCGGAUGAAGUGAUGCAACACUGGAGCCGCUGGGAACUAAUUUGUAUGCGAAAGUAUAUUGAUUAGUUUUGGAGUACUCGUGGUCG
Summary of the method: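 Pooled colonies went to amplicon sequencing on an Illumina HiSeq 2500 after six replicate transformations. The plates were LB agar with 100 μg/mL carbenicillin, 50 μM IPTG and 0.2% rhamnose, with or without 25 μg/mL kanamycin, incubated overnight at 37°C or 30°C. The E. coli BL21(DE3) library had all eight P1ex-region intron nucleotides randomised, the intron placed in the knt kanamycin-resistance gene on pET-22b(+). DiMSum fitness is the error-weighted combination of replicate fold changes, kanamycin against none, normalised to wild type.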

Sequence	self-splicing fitness (ln) (30 °C)	self-splicing fitness (ln) (37 °C)
GCACAGCAAUAUUACGAGGU	-1.85 ± 0.095	0.0148 ± 0.11
GUGUAGCAAUAUUACGGUUU	-1.04 ± 0.086	-0.738 ± 0.11
GCCUAGCAAUAUUACGCAGC	-4.41 ± 0.36	-1.52 ± 0.19
UACAAGCAAUAUUACGCCAG	-1.5 ± 0.12	-1.81 ± 0.15
UUGGAGCAAUAUUACGAAAC		-2.22 ± 0.37
UCGAAGCAAUAUUACGUACG	-1.01 ± 0.082	0.00936 ± 0.11
CGCCAGCAAUAUUACGGAUG	-2.64 ± 0.1	-1.25 ± 0.087
GAGGAGCAAUAUUACGACGA	-1.2 ± 0.13	0.494 ± 0.13
AGGAAGCAAUAUUACGAGCC	-2.25 ± 0.23	-1.32 ± 0.27
AAACAGCAAUAUUACGAGAC	-3.96 ± 0.25	-2.66 ± 0.25
CUAAAGCAAUAUUACGUGUU	-4.79 ± 0.19	-2.91 ± 0.16
AAGUAGCAAUAUUACGUAGU	-3.59 ± 0.19	-2.32 ± 0.21
AAAGAGCAAUAUUACGCCAG	-3.87 ± 0.35	-0.837 ± 0.21
GGGUAGCAAUAUUACGUCGA	-0.508 ± 0.14	-0.243 ± 0.15
GAAGAGCAAUAUUACGUCUA	-1.86 ± 0.13	-1.01 ± 0.13
CUAUAGCAAUAUUACGGACU		-1.89 ± 0.31
GCCGAGCAAUAUUACGCCCG	-2.68 ± 0.26	
CUGGAGCAAUAUUACGUACU		-2.19 ± 0.43
GCGAAGCAAUAUUACGUUAC		-2.72 ± 0.43
CGCCAGCAAUAUUACGACAA	-2.46 ± 0.31	-0.75 ± 0.15
AAUAAGCAAUAUUACGCUCC	-1.46 ± 0.23	-0.799 ± 0.24
CGCGAGCAAUAUUACGUGAU	-2.82 ± 0.23	-3.59 ± 0.37
CGCUAGCAAUAUUACGGUAA	-1.73 ± 0.1	-2.12 ± 0.11
UUUAAGCAAUAUUACGCGCG	0.181 ± 0.12	-0.26 ± 0.14
CGUGAGCAAUAUUACGACCG	-3.79 ± 0.33	-1.39 ± 0.27

Sequence	self-splicing fitness (ln) (30 °C)	self-splicing fitness (ln) (37 °C)
CAAUAGCAAUAUUACGGCAC	-3.57 ± 0.2	-3.06 ± 0.28
CUGCAGCAAUAUUACGUGAU	-1.19 ± 0.072	-0.758 ± 0.12
AGACAGCAAUAUUACGAUAC	-2.64 ± 0.27	-1.79 ± 0.25
CCCCAGCAAUAUUACGUCGC	-3.65 ± 0.18	-2.34 ± 0.2
CCUGAGCAAUAUUACGAGCU		-1.95 ± 0.42
GAUGAGCAAUAUUACGAUCA	-2.17 ± 0.24	-1.31 ± 0.21
AGAUAGCAAUAUUACGUCGG	-1.52 ± 0.14	-1.26 ± 0.16
CGGGAGCAAUAUUACGCUGU	-2.76 ± 0.33	-2.43 ± 0.34
ACACAGCAAUAUUACGCCUC	-2.92 ± 0.18	-1.73 ± 0.2
UCACAGCAAUAUUACGAGUU	-3.54 ± 0.17	-2.08 ± 0.14
GCAAAGCAAUAUUACGCCUA	-3.76 ± 0.42	-1.11 ± 0.21
GGAAAGCAAUAUUACGCAUG	-1.24 ± 0.084	-0.813 ± 0.11
ACAGAGCAAUAUUACGUAGU	-1.7 ± 0.14	-2.87 ± 0.21
UAACAGCAAUAUUACGACUG	-0.343 ± 0.077	0.429 ± 0.099
CAGGAGCAAUAUUACGGCAG	-1.41 ± 0.083	-1.27 ± 0.09
UCAUAGCAAUAUUACGGCAC	-2.93 ± 0.5	-2.15 ± 0.37
GACGAGCAAUAUUACGAAUG	-3.03 ± 0.2	-2.31 ± 0.22
UCACAGCAAUAUUACGCGGG	-3.28 ± 0.12	-2.56 ± 0.16
GCAUAGCAAUAUUACGAUUC	-0.8 ± 0.083	-0.436 ± 0.097
ACGCAGCAAUAUUACGGAUU	-2.19 ± 0.08	-0.83 ± 0.085
CGCUAGCAAUAUUACGGAUC	-3.32 ± 0.24	-1.14 ± 0.15
CAACAGCAAUAUUACGAGCU	-3.61 ± 0.18	-2.44 ± 0.17
CGCUAGCAAUAUUACGUUCG	-1.46 ± 0.067	-0.781 ± 0.089
CGCUAGCAAUAUUACGACCA	-1.86 ± 0.093	-1.24 ± 0.12
CGCGAGCAAUAUUACGGAAU	-3.2 ± 0.2	-3.01 ± 0.25

Sequence	self-splicing fitness (ln) (30 °C)	self-splicing fitness (ln) (37 °C)
AGGCAGCAAUAUUACGAGGA	-3.31 ± 0.28	-2.55 ± 0.26
AUAAAGCAAUAUUACGUAUC	-3.77 ± 0.18	-2.02 ± 0.19
CUCGAGCAAUAUUACGUAAU		-1.42 ± 0.29
CCCAAGCAAUAUUACGUGAU	-3.67 ± 0.13	-2.45 ± 0.16
AAGGAGCAAUAUUACGUUUC	-3.26 ± 0.43	-2.26 ± 0.43
GCAUAGCAAUAUUACGGUAU	-2.86 ± 0.16	-1.75 ± 0.12
UCUUAGCAAUAUUACGACGG	-0.955 ± 0.15	-0.0318 ± 0.2
CGCAAGCAAUAUUACGUAUG	-2.25 ± 0.091	-0.723 ± 0.091
GCCGAGCAAUAUUACGUAUG	-3.36 ± 0.25	-3.11 ± 0.38
GCAUAGCAAUAUUACGAACG	-0.883 ± 0.14	-0.356 ± 0.18
ACUGAGCAAUAUUACGAGAA	-2.33 ± 0.38	-1.96 ± 0.32
CACAAGCAAUAUUACGUCGC	-3.09 ± 0.11	-2.41 ± 0.17
UGGCAGCAAUAUUACGGCUU	-0.209 ± 0.075	0.316 ± 0.098
UUGUAGCAAUAUUACGAUCU		-2.38 ± 0.27
GUGCAGCAAUAUUACGUUGC	-3.82 ± 0.31	-2.93 ± 0.31
AAAAAGCAAUAUUACGAGGA	-2.86 ± 0.16	-2.21 ± 0.15
UAUGAGCAAUAUUACGCUAU	-1.38 ± 0.31	-1.3 ± 0.23
UGCAAGCAAUAUUACGAAUA	-1.88 ± 0.12	-1.04 ± 0.13
GAAAAGCAAUAUUACGGCAA	-0.142 ± 0.1	-0.719 ± 0.11
AAUGAGCAAUAUUACGAUAG	-3.68 ± 0.27	-2.04 ± 0.34
CGCCAGCAAUAUUACGGAUU	-3.66 ± 0.19	-0.897 ± 0.097
CUAGAGCAAUAUUACGACAA	-2.53 ± 0.32	-1.84 ± 0.34
GUCGAGCAAUAUUACGGACG	-1.43 ± 0.18	-0.738 ± 0.21
GUAGAGCAAUAUUACGGCUG	-1.04 ± 0.13	-0.584 ± 0.14
ACCAAGCAAUAUUACGACAU	-1.04 ± 0.011	-0.296 ± 0.032

Sequence	self-splicing fitness (ln) (30 °C)	self-splicing fitness (ln) (37 °C)
CCAGAGCAAUAUUACGAGUG	-1.2 ± 0.073	-0.146 ± 0.092
GCUUAGCAAUAUUACGCGGC	-2.35 ± 0.29	-2.19 ± 0.37
AAUUAGCAAUAUUACGCCGC	-2.94 ± 0.36	-1.66 ± 0.24
UGCUAGCAAUAUUACGGCUG	-0.317 ± 0.15	-0.46 ± 0.18
GGGUAGCAAUAUUACGGAGG		-0.988 ± 0.29
UAAAAGCAAUAUUACGGUAC	-3.76 ± 0.16	-1.42 ± 0.16
AACCAGCAAUAUUACGGUCG	-0.366 ± 0.049	0.214 ± 0.07
GAGUAGCAAUAUUACGGUAU	-2.6 ± 0.13	-2.22 ± 0.2
GGCAAGCAAUAUUACGAUUU	-0.299 ± 0.058	0.164 ± 0.077
CACAAGCAAUAUUACGAGGU	-3.59 ± 0.17	-2.2 ± 0.18
GGAGAGCAAUAUUACGACAC	-0.961 ± 0.28	0.238 ± 0.22
CUCCAGCAAUAUUACGUCGU	-3.07 ± 0.12	-2.72 ± 0.18
UCUGAGCAAUAUUACGUCCU	-1.81 ± 0.39	
GAAAAGCAAUAUUACGAUAG	-3.28 ± 0.15	-1.69 ± 0.15
ACCUAGCAAUAUUACGCCAA	-3.4 ± 0.27	-2.09 ± 0.23
CCGAAGCAAUAUUACGGAAU	-3.74 ± 0.19	-3 ± 0.24
GAUGAGCAAUAUUACGUUAG	-3.42 ± 0.24	-1.81 ± 0.23
AAGAAGCAAUAUUACGGGAG	-2.62 ± 0.12	-1.47 ± 0.11
AGACAGCAAUAUUACGUUUC	-4.68 ± 0.36	-3.7 ± 0.42
GGUUAGCAAUAUUACGGAAG		-2.49 ± 0.36
GAAAAGCAAUAUUACGAGAC	-2.59 ± 0.29	-0.985 ± 0.16
CAAAAGCAAUAUUACGGGUU	-3.28 ± 0.14	-2.46 ± 0.16
CACAAGCAAUAUUACGCGGA	-3.17 ± 0.13	-1.08 ± 0.084
